Assay results: patent US20090291088A1, “THERAPEUTIC COMBINATIONS OF ANTI-IGF-1R ANTIBODIES AND OTHER COMPOUNDS” (Biogen Idec MA Inc., priority 2008, published 2009)
Numbering of substitutions follows the chain as printed.

B1: M14-C03: anti-IGF-1R antibody, allosteric blocker of IGF-1 and IGF-2 (antibody, V domains shown)
VH: EVQLLESGGGLVQPGGSLRLSCAASGFTFSKYMMSWVRQAPGKGLEWVSYISPSGGLTWYADSVKGRFTISRDNSKNTLYLQMNSLRAEDTAVYYCARDGARGYGMDVWGQGTTVTVSS
VL: DIQMTQSPATLSLSPGERATLSCRASQSVSSYLAWYQQKPGQAPRLLIYDASNRATGIPARFSGSGSGTDFTLTISSLEPEDFAVYYCQQRSNWPPEVTFGPGTKVDIK
modifications: Antibody variable heavy chain sequence; Antibody variable light chain sequence
B2: 20C8.3B8: murine anti-human IGF-1R monoclonal antibody from hybridoma; VH SEQ ID NO:43, VL SEQ ID NO:103 (antibody, V domains shown)
VH: DVQLQESGPDLVKPSQSLSLTCTVTGYSITSGYSWHWIRQFPGNKLEWMGYIHYSGGTNYNPSLKSRISITRDTSKNQFFLQLNSVTTEDTATYYCARSGYGYRSAYYFDYWGQGTTVTVSS
VL: DIVLTQSPASLAVSLGQRATISCRASKSVSTSAYSYMHWYQQKPGQPPKLLIYLASNLESGVPARFSGSGSGTDFTLNIHPVEEEDAATYYCQHSRELPYTFGGGTKLEIK
modifications: Antibody variable heavy chain sequence; Antibody variable light chain sequence
B3: 20D8.24B11: murine anti-human IGF-1R monoclonal antibody from hybridoma; VH SEQ ID NO:53, VL SEQ ID NO:103 (antibody, V domains shown)
VH: B2 VH with V118L
VL: B2 VL
modifications: Antibody variable heavy chain sequence; Antibody variable light chain sequence

What was measured:
[1] = target: T1, recombinant human IGF-1R-10His (Homo sapiens, UniProt P08069); assay: SPR, antibodies and Fabs on IGF-1R-His captured via PENTA-His antibody; format: binding; details: full-length antibodies, 64 nM to 0.5 nM
T1 construct: denoted hIGF-1R(1-902)-His10, was purchased from R&D systems (Cat. No. 305-GR-050); purchased R&D Systems 305-GR-050

human INSR(28-956)-His10 = target: T2, human INSR(28-956)-His10 (Homo sapiens, UniProt P06213); assay: SPR, receptor ectodomain injected over immobilized antibodies: INSR; format: binding; details: full-length fully human antibodies; up to 2 μM receptor
T2 construct: human INSR(28-956)-His10 (INSR (R&D systems)); purchased R & D Systems 1544-IR
Description: SPR analyses were performed using a Biacore3000. The instrument was set to 25° C. and assays performed with running buffer HBS-EP pH 7.2 purchased from Biacore (Biacore, Cat. No. BR-1001-88). The fully human antibodies, M13-C06, M14-C03, and M14-G11 were immobilized to ˜10,000 RU on Biacore CM5 Research Grade Sensor Chip surfaces using the standard NHS/EDC-amine reactive chemistry according to protocols supplied by Biacore. For immobilization, the antibodies were diluted to 40 μg/mL in a 10 mM Acetate pH 4.0 buffer. To investigate the relative kinetics of association and dissociation of the full-length ectodomains of human IGF-1R(1-902)-His10 (hIGF-1R-His10 (R&D systems)) and human INSR(28-956)-His10 (INSR (R&D systems)) to each of the human antibodies, increasing concentrations of hIGF-1R-His10 or INSR were injected over the sensorchip surfaces. The hIGF-1R-His10 concentration series ranged from 1.0 nM to 250 nM while the INSR concentrations ranged from 1.0 nM to 2 μM. All antibody surfaces were reliably regenerated with 100 mM Glycine, pH 2.0. […] Flow rates were 20 μl/min. (“His10” denotes a 10-residue histidine tag on the C-terminus of the constructs.)

MCF-7 = assay: Ki67 inhibition in MCF-7 cells; format: cell-based, human; details: breast cancer cell
Panc-1 = assay: IGF driven tumor cell growth, CELL TITER-GLO, Panc-1; format: cell-based, human; details: pancreatic cancer cell
Description: (§1) NCI-H23, Calu-6, Colo-205, Panc-1, BxPC-3 (ATCC) tumor lines were purchased from ATCC. Cell lines were grown in complete growth medium containing RPMI-1640 (ATCC), 10% fetal bovine serum (Irvine Scientific Inc.) and 50 μg/ml of Gentamycin (Gibco, Invitrogen). Trypsin-EDTA solution (Sigma) was used for removal of adherent cells from culture vessels. Phosphate buffered saline, pH 7.2, was from MediaTech Inc The 96-well clear bottom plates for luminescent assay was purchased from Wallac Inc.
(§2) Cells grown to 80% monolayers were, trypsinized, washed, resuspended and plated into 96-well plates in 200 μl of 2% growth medium at 8×10^3 cells/well for NCI-H23 and Colo-205 cells; and 5×10^3 cells/well for Calu-6, Panc-1 and BxPC-3 cells. After 24 hours, the culture medium was replaced with 100 μl of serum free medium (SFM), and 50 μl of serially diluted antibodies at 4× concentration was added. […] All treatments were done in triplicates. Cell growth was measured using the CELL TITER-GLO™ Luminescent Cell Viability Assay (Promega, Madison, Wis.). The 1:1 mixture of reagent and SFM was added at 200 μl/well. Luminescence was detected on Wallac (Boston, Mass.) plate reader.
(§3) The ability of the selected murine antibodies to inhibit IGF/IGF-1R dependent in vitro growth of several human tumor lines (Lung, H-23, Calu-6; Pancreas, BxPc-3, Panc-1, MiaPaCa and Colon Colo205) was measured by a proliferation assay described in Example 13.

Calu-6 = assay: IGF driven tumor cell growth, CELL TITER-GLO, Calu-6; format: cell-based, human; details: lung cancer cells
Description: as §1, §2, §3

[2] = target: T3, recombinant human IGF-1R ectodomain (Homo sapiens, UniProt P08069); assay: ELISA binding of Fabs and murine MAbs to recombinant soluble IGF-1R (IGF-1R-His, IGF-1R-Fc); details: murine monoclonal antibodies; read-out: Binding (EC50nM) Protein ELISA
T3 construct: denoted hIGF-1R(1-902)-His10, was purchased from R&D systems (Cat. No. 305-GR-050); His or Fc (two alternative proteins, not both on one chain); purchased R & D Systems 305-GR
Description: Recombinant human IGF-1R ectodomain was used to screen a human naïve phagemid Fab library containing 3.5×10^10 unique clones (Hoet, R. M., et al. Nat. Biotechnol. 23(3):344-8 (2005), (“Hoet et al.”) which is incorporated herein by reference in its entirety). Two distinct panning arms were followed using biotinylated IGF1R-his and IGF1R-Fc protein. Proteins were captured on steptavidin-coated magnetic beads prior to incubation with the phage library. In the case of IGF1R-Fc, a biotinylated anti-Fc antibody was captured on the magnetic beads, followed by captured of the Fc fusion protein. […] Sequence analysis of all clones determined 12 clones were isolated in both arms of the panning strategy. […]
ELISA assays were performed to determine specific binding of the Fab fragment antibodies to soluble IGF-1R over the insulin receptor. […] Bound antibody was detected with HRPO labeled goat α-human kappa (Southern Biotechnology Associates, #2060-05) for Fabs and goat α-mouse IgG Fcγ (Jackson Immunoresearch, # 115-035-164) for murine MAbs. Color development was stopped by addition of 4NH2SO4 and optical density is measured at 450 nm using a Molecular Devices plate reader and binding curves are generated.

Colo-205 = assay: IGF driven tumor cell growth, CELL TITER-GLO, Colo-205; format: cell-based, human; details: colon cancer cell
Description: as §1, §2, §3

NCI-H23 = assay: IGF driven tumor cell growth, CELL TITER-GLO, H-23; format: cell-based, human; details: for Proliferation of Tumor Cells H-23: lung cancer cells
Description: as §1, §2, §3
A commercially available anti-IGF-1R antibody (IR3) was used as a positive control. The mouse IgG (anti-IDectin, IgG1) and human gamma 4 version of IDEC-152 antibody of irrelevant specificity were used as isotype matched controls for the experiments. […]

Row | Molecule | binding to immobilized recombinant human IGF-1R (SPR) [1] | binding of INSR to immobilized antibody surface (human INSR(28-956)-His10) | Proliferation of Tumor Cells MCF-7* (Ki67 Inhibit.) (MCF-7) | Proliferation of Tumor Cells Panc-1 (Panc-1) | Proliferation of Tumor Cells Calu-6 (Calu-6) | EC50 [2] [nM] | Proliferation of Tumor Cells Colo-205 (Colo-205) | inhibition of IGF-1 and IGF-2 driven cell proliferation in H-23 (NCI-H23; NCI-H23 lung tumor cell line) | Proliferation of Tumor Cells H-23 (NCI-H23)
1 | B1 | strong binding | little binding activity | – | – | – | – | – | – | –
2 | B2 | – | – | +++ (>50%@0.1 μg/ml) | +++ (>30%@0.1 μg/ml) | +++ (>30%@0.1 μg/ml) | 0.085 | +++ (>30%@0.1 μg/ml) | showed inhibition | +++ (>30%@0.1 μg/ml)
3 | B3 | – | – | ++ (>50%@1 μg/ml) | +++ (>30%@0.1 μg/ml) | +++ (>30%@0.1 μg/ml) | 0.042 | +++ (>30%@0.1 μg/ml) | – | ++++ (>30%@0.01 μg/ml)
